We go through two variants from IntAct's records for PubMed 19407143.

B1: Protein phosphatase 2C 56 (Arabidopsis thaliana (Mouse-ear cress)), P49597 (parent)
chain: MEEVSPAIAGPFRPFSETQMDFTGIRLGKGYCNNQYSNQDSENGDLMVSLPETSSCSVSGSHGSESRKVLISRINSPNLNMKESAAADIVVVDISAGDEINGSDITSEKKMISRTESRSLFEFKSVPLYGFTSICGRRPEMEDAVSTIPRFLQSSSGSMLDGRFDPQSAAHFFGVYDGHGGSQVANYCRERMHLALAEEIAKEKPMLCDGDTWLEKWKKALFNSFLRVDSEIESVAPETVGSTSVVAVVFPSHIFVANCGDSRAVLCRGKTALPLSVDHKPDREDEAARIEAAGGKVIQWNGARVFGVLAMSRSIGDRYLKPSIIPDPEVTAVKRVKEDDCLILASDGVWDVMTDEEACEMARKRILLWHKKNAVAGDASLLADERRKEGKDPAAMSAAEYLSKLAIQRGSKDNISVVVVDLKPRRKLKSKPLN
partner: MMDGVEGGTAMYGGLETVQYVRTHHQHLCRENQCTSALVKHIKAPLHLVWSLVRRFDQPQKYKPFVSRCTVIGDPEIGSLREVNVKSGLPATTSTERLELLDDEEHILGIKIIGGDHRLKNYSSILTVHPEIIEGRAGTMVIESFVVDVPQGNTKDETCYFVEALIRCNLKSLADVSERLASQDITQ
B2: Protein phosphatase 2C 77 (Arabidopsis thaliana (Mouse-ear cress)), O04719 (parent)
chain: MDEVSPAVAVPFRPFTDPHAGLRGYCNGESRVTLPESSCSGDGAMKDSSFEINTRQDSLTSSSSAMAGVDISAGDEINGSDEFDPRSMNQSEKKVLSRTESRSLFEFKCVPLYGVTSICGRRPEMEDSVSTIPRFLQVSSSSLLDGRVTNGFNPHLSAHFFGVYDGHGGSQVANYCRERMHLALTEEIVKEKPEFCDGDTWQEKWKKALFNSFMRVDSEIETVAHAPETVGSTSVVAVVFPTHIFVANCGDSRAVLCRGKTPLALSVDHKPDRDDEAARIEAAGGKVIRWNGARVFGVLAMSRSIGDRYLKPSVIPDPEVTSVRRVKEDDCLILASDGLWDVMTNEEVCDLARKRILLWHKKNAMAGEALLPAEKRGEGKDPAAMSAAEYLSKMALQKGSKDNISVVVVDLKGIRKFKSKSLN
partner: B1 partner

In the first assay the parent is B1. To be noted: with pyl9_arath PYL9, Q84MC7.
For MEEVSPAIAGPFRPFSETQMDFTGIRLGKGYCNNQYSNQDSENGDLMVSLPETSSCSVSGSHGSESRKVLISRINSPNLNMKESAAADIVVVDISAGDEINGSDITSEKKMISRTESRSLFEFKSVPLYGFTSICGRRPEMEDAVSTIPRFLQSSSGSMLDGRFDPQSAAHFFGVYDGHDGSQVANYCRERMHLALAEEIAKEKPMLCDGDTWLEKWKKALFNSFLRVDSEIESVAPETVGSTSVVAVVFPSHIFVANCGDSRAVLCRGKTALPLSVDHKPDREDEAARIEAAGGKVIQWNGARVFGVLAMSRSIGDRYLKPSIIPDPEVTAVKRVKEDDCLILASDGVWDVMTDEEACEMARKRILLWHKKNAVAGDASLLADERRKEGKDPAAMSAAEYLSKLAIQRGSKDNISVVVVDLKPRRKLKSKPLN [G180D], the “effect of a mutation on the interaction” value is on record as “decreasing interaction”.

The variants in a further assay derive from B2. The following applies: with pyl9_arath PYL9, Q84MC7.
As to MDEVSPAVAVPFRPFTDPHAGLRGYCNGESRVTLPESSCSGDGAMKDSSFEINTRQDSLTSSSSAMAGVDISAGDEINGSDEFDPRSMNQSEKKVLSRTESRSLFEFKCVPLYGVTSICGRRPEMEDSVSTIPRFLQVSSSSLLDGRVTNGFNPHLSAHFFGVYDGHDGSQVANYCRERMHLALTEEIVKEKPEFCDGDTWQEKWKKALFNSFMRVDSEIETVAHAPETVGSTSVVAVVFPTHIFVANCGDSRAVLCRGKTPLALSVDHKPDRDDEAARIEAAGGKVIRWNGARVFGVLAMSRSIGDRYLKPSVIPDPEVTSVRRVKEDDCLILASDGLWDVMTNEEVCDLARKRILLWHKKNAMAGEALLPAEKRGEGKDPAAMSAAEYLSKMALQKGSKDNISVVVVDLKGIRKFKSKSLN [G168D], the “effect of a mutation on the interaction” value is given as “disrupting interaction”.
